Consider three sequences from the supplement of paper PMC6379048.

Common to all, as to experiment: EC50 of free RNA motif oligo competing protein binding to immobilised probe
The target in one series is HNRNPAB (UniProt Q99729). An outline of the steps:
(§1)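 Free RNA oligos (0 nM to 30 μM) competed for 1 h at 4°C in HEK293-FT lysate (2.5 mg protein/well) before a 30 min, 4°C pulldown with the same oligos on NHS-Sepharose beads. Bound proteins were quantified by label-free LC-MS/MS and normalised to the control. Kd was found by multiplying EC50, from a four-parameter log-logistic fit, by a protein-dependent depletion factor.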

A further series concerns the target T1, CSTF3 (UniProt Q12996).
T1 sequence: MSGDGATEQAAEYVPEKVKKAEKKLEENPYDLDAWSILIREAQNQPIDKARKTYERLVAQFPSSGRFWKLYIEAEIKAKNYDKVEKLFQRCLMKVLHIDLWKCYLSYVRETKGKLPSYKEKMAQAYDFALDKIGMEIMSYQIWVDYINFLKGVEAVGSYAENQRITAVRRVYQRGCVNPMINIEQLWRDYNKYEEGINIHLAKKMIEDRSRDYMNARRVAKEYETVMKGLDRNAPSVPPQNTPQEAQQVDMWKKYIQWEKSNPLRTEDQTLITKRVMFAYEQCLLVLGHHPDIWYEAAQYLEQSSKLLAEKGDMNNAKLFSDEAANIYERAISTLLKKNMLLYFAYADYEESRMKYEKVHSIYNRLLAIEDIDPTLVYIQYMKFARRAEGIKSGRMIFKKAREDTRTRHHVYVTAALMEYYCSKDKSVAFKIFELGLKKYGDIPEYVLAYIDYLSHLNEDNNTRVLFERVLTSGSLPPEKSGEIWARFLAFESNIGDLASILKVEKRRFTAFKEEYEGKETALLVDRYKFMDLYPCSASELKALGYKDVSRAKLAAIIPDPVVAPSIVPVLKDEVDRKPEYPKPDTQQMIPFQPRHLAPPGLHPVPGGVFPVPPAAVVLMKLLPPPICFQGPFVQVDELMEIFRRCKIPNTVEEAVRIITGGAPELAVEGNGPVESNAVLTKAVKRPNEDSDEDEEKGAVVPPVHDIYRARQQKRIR
An outline of the steps:
as §1

Another series deals with T2, LSM1 (UniProt O15116).
T2 sequence: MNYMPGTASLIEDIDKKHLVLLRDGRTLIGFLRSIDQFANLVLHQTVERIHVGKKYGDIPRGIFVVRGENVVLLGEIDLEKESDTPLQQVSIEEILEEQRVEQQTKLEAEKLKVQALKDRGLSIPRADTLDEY
The method, boiled down:
as §1

Another series has as its target T3, ZFP36L2 (UniProt P47974).
T3 sequence: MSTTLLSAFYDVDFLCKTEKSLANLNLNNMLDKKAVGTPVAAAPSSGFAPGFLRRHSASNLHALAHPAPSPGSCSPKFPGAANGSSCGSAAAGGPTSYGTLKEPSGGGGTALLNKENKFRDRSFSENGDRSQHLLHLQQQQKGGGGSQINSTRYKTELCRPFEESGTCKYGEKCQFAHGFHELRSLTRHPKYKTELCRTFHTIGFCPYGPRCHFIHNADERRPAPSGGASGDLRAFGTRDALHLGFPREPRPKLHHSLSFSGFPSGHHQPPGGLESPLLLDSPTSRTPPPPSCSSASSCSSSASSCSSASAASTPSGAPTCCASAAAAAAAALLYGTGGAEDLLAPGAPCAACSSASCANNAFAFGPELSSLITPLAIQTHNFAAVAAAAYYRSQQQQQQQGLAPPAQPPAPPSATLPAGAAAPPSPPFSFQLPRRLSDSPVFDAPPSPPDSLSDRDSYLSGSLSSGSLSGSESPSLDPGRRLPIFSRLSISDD
An outline of the steps:
as §1

The target in a further series is XRN1 (UniProt Q8IZH2). An outline of the steps:
as §1

For the next series, the target named is RPS20 (UniProt P60866). An outline of the steps:
as §1

Another series deals with ELAVL1 (UniProt Q15717). The method, boiled down: as §1
For another series, the target named is T4, CSTF2 (UniProt P33240).
T4 sequence: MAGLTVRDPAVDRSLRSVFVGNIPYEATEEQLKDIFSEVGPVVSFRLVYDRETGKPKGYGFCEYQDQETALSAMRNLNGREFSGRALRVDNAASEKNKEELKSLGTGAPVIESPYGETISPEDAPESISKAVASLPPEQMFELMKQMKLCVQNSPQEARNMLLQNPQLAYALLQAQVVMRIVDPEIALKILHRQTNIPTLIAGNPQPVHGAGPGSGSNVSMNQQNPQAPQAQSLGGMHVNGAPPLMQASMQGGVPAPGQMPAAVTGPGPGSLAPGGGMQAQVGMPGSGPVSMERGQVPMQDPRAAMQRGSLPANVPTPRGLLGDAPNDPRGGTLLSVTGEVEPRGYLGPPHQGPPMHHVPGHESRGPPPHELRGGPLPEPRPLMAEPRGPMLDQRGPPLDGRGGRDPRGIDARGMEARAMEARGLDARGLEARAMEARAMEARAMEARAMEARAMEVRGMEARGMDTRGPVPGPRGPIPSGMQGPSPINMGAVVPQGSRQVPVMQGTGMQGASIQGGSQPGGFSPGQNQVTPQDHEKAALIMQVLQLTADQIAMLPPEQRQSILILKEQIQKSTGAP
The method, boiled down: as §1

XRN1, sequence (Q8IZH2 whole entry): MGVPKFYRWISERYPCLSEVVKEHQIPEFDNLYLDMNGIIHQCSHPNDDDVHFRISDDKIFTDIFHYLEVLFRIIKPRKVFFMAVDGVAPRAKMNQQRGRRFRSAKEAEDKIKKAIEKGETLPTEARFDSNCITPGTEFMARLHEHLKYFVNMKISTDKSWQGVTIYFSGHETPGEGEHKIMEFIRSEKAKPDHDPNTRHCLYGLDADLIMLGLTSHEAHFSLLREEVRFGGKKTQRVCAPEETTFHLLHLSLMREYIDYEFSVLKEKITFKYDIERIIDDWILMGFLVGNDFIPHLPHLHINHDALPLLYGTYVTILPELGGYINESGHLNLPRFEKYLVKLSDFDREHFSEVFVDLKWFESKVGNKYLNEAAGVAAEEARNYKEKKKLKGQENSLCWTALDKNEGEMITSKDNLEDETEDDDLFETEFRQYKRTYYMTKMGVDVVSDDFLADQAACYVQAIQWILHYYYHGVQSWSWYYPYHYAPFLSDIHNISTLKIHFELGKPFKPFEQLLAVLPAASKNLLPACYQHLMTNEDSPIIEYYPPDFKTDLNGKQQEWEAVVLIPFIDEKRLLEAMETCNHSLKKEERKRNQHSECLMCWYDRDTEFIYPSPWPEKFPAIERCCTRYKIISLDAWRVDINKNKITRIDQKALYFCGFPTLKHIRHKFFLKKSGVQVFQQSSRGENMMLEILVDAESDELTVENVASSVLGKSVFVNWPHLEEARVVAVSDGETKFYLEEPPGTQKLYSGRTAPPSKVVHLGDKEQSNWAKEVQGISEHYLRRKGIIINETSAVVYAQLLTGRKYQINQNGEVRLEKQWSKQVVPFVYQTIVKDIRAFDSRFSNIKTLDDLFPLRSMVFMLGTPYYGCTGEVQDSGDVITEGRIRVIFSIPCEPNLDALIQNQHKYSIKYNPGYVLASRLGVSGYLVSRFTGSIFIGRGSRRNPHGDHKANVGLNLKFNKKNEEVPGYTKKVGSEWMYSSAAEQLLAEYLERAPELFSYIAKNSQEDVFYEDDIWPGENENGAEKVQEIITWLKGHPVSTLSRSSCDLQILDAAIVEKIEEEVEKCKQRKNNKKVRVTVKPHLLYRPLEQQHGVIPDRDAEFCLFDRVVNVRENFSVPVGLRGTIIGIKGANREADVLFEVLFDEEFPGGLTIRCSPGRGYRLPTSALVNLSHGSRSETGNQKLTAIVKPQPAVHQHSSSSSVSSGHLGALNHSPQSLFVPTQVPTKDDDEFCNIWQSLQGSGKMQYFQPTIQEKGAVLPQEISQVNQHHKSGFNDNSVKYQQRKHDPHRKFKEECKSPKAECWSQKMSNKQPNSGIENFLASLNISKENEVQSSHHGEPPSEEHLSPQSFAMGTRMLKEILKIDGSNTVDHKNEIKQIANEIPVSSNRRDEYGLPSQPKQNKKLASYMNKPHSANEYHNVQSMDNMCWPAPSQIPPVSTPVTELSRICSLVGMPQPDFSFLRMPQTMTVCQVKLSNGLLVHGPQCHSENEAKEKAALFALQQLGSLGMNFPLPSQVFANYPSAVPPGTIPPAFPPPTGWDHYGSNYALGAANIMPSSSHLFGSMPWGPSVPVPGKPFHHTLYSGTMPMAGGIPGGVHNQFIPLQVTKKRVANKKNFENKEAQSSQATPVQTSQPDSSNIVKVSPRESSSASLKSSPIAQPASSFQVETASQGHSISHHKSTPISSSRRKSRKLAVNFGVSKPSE
HNRNPAB, sequence (Q99729 whole entry): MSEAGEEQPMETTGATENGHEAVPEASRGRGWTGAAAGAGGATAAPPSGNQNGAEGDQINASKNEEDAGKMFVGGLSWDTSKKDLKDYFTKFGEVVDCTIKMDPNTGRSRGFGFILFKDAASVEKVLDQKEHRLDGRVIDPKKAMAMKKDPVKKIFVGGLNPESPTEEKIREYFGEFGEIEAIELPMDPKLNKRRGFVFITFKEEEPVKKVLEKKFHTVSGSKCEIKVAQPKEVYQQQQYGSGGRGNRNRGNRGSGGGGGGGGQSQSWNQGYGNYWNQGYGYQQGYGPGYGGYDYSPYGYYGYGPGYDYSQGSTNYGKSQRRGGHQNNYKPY
ELAVL1, sequence (Q15717 whole entry): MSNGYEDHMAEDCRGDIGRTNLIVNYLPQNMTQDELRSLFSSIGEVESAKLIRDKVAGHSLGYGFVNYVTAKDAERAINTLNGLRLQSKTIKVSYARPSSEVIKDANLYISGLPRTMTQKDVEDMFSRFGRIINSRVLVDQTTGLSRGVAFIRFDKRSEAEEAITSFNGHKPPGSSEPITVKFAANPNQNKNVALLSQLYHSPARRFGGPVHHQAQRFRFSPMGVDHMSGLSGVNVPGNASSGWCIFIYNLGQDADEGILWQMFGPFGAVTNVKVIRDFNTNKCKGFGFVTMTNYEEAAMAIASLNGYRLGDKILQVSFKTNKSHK

Regarding AAUAAA, the EC50 (as a rule, the concentration at which the effect is half-maximal) is 3010 nM with HNRNPAB; 80.7 nM with CSTF3; 188 nM with LSM1; 1830 nM with ZFP36L2; 440 nM in the series with XRN1; 3800 nM with RPS20. For the same sequence, the values for the half-maximal effective concentration (EC50) in the series with ELAVL1 and with CSTF2 were 5060 nM and 83.9 nM, respectively.
As for CUGUCCU, the EC50 in the series with RPS20 came out at 171 nM.
For UAUUUAU, the 50% effective concentration (EC50) with HNRNPAB worked out at 3090 nM; with CSTF3, 600 nM; in the series with LSM1, 395 nM; with ZFP36L2, 61.8 nM; in the series with XRN1 it was 196 nM; with ELAVL1, 3040 nM. The sequence further returned an EC50 with CSTF2 of 463 nM.
